Test results reported in article PMC3439888 (Nucleic Acids Research, 2012).

Target: the molecule itself
Assay: SEC

B1: Lac repressor (natural protein)
chain: MKPVTLYDVAEYAGVSYQTVSRVVNQASHVSAKTREKVEAAMAELNYIPNRVAQQLAGKQSLLIGVATSSLALHAPSQIVAAIKSRADQLGASVVVSMVERSGVEACKAAVHNLLAQRVSGLIINYPLDDQDAIAVEAACTNVPALFLDVSDQTPINSIIFSHEDGTRLGVEHLVALGHQQIALLAGPLSSVSARLRLAGWHKYLTRNQIQPIAEREGDWSAMSGFQQTMQMLNEGIVPTAMLVANDQMALGAMRAITESGLRVGADISVVGYDDTEDSSCYIPPLTTIKQDFRLLGQTSVDRLLQLSQGQAVKGNQLLPVSLVKRKTTLAPNTQTASPRALADSLMQLARQVSRLESGQ
- stoichiometry N: 4
